We go through 1 molecule from patent US20240018526, “DEOXYRIBONUCLEIC ACID-BASED BIOSENSOR AND ASSOCIATED METHODS” (FACible BioDiagnostics LLC, published 2024).

This data set deals with SARS-CoV-2 spike glycoprotein S1 (SARS-CoV-2, UniProt P0DTC2 P0DTC2:14-685).

B1: N6-D2-biotin aptamer (ssDNA)
DNA: CACGGTTCGAGCTGGTACTAAACTTCGCTAAACAACACGCAGCATTTCATCGGGTCCAAAAGGGGCTGCTCGGGATTGCGGATATGGACCCGTCAGCTTA
modifications: 5'-biotin (5BiosG), as SEQ ID NO 96
As for B1, the binding result is “binds”.
